Test results taken from US20140274782A1, “AFFINITY REAGENTS AND METHODS FOR DETECTION, PURIFICATION, AND PROTEOMIC ANALYSIS OF METHYLATED PROTEINS” (The Board of Trustees of the Leland Stanford Junior …, priority 2013, published 2014).

How the values were obtained:
Test in all cases: ProtoArray methylated with G9a SET domain
[1] = target: CDK5RAP3, G9a-methylated (human) (UniProt Q96JB5)
[2] = target: STK17B, G9a-methylated (human) (UniProt O94768)
[3] = target: CRYZL1, G9a-methylated (human) (UniProt O95825)
[4] = target: C12orf62, G9a-methylated (human) (UniProt Q96I36)
[5] = target: FTL, G9a-methylated (human) (UniProt P02792)
[6] = target: HS3ST1, G9a-methylated (human) (UniProt O14792)
HS3ST1, G9a-methylated (human), sequence (O14792 21-307 limits assumed): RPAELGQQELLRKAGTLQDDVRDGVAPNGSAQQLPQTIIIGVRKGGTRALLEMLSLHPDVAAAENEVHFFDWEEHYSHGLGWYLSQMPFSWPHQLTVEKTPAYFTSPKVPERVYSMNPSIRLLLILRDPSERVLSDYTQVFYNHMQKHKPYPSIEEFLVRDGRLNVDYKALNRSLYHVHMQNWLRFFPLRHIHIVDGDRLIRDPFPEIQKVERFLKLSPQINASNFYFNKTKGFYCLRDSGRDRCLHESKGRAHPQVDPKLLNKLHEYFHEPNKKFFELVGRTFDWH

[7] = target: PPIL5, G9a-methylated (human) (UniProt Q96L50)
[8] = target: ACSL4, G9a-methylated (human) (UniProt O60488)
[9] = target: ARL6IP1, G9a-methylated (human) (UniProt Q15041)
[10] = target: C1QTNF6, G9a-methylated (human) (UniProt Q9BXI9)
C1QTNF6, G9a-methylated (human), sequence (Q9BXI9 47-278 limits assumed): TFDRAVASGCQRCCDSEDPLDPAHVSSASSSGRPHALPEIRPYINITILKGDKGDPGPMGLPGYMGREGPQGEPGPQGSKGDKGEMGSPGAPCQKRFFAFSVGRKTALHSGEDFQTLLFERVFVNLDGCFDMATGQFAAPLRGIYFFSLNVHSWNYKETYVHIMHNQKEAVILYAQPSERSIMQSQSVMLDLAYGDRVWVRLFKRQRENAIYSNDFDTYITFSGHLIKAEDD

[11] = target: CUTC, G9a-methylated (human) (UniProt Q9NTM9)
[12] = target: RAB33B, G9a-methylated (human) (UniProt Q9H082)
[13] = target: RAB7B, G9a-methylated (human) (UniProt Q96AH8)
RAB7B, G9a-methylated (human), sequence (Q96AH8 whole entry): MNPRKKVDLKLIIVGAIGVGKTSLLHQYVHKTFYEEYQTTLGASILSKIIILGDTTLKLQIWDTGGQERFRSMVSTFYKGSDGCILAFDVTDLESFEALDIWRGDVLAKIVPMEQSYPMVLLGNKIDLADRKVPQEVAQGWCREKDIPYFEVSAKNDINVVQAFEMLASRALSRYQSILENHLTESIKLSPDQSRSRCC

[14] = target: BLCAP, G9a-methylated (human) (UniProt P62952)
BLCAP, G9a-methylated (human), sequence (P62952 whole entry): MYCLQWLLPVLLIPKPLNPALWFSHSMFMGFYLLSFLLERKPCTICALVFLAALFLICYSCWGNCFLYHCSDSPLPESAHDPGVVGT

[15] = target: CA13, G9a-methylated (human) (UniProt Q8N1Q1)
CA13, G9a-methylated (human), sequence (Q8N1Q1 whole entry): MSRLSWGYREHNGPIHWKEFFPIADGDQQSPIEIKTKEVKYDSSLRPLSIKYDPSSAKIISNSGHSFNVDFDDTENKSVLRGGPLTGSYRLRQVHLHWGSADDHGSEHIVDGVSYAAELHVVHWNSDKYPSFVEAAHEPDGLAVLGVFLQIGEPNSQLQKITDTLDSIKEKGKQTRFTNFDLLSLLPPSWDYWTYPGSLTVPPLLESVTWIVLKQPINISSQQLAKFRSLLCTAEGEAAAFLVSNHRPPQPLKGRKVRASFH

[16] = target: LYRM7, G9a-methylated (human) (UniProt Q5U5X0)
LYRM7, G9a-methylated (human), sequence (Q5U5X0 whole entry): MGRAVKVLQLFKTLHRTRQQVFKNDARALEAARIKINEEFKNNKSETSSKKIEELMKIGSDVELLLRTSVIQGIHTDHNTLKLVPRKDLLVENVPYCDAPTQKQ

[17] = target: NME1, G9a-methylated (human) (UniProt P15531)
[18] = target: TMED5, G9a-methylated (human) (UniProt Q9Y3A6)
[19] = target: ZRANB1, G9a-methylated (human) (UniProt Q9UGI0)
ZRANB1, G9a-methylated (human), sequence (Q9UGI0 whole entry): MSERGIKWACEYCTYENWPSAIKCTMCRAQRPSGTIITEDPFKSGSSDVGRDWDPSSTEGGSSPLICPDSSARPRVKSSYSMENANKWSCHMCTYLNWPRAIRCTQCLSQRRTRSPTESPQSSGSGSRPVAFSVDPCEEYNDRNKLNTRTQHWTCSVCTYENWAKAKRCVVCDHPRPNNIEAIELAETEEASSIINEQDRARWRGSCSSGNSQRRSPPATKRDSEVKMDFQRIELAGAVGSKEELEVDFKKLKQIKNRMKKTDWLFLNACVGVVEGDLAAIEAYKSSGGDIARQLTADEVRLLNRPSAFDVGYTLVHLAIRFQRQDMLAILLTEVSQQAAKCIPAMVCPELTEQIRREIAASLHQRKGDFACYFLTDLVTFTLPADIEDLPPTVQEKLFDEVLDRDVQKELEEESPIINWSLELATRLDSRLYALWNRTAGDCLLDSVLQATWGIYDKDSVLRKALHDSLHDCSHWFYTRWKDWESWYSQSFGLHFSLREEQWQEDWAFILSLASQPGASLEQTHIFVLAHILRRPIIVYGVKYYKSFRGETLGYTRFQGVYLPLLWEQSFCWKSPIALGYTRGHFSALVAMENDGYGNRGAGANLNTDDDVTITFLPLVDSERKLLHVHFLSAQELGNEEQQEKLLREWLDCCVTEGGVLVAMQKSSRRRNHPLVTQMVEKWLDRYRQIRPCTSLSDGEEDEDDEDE

[20] = target: CAB39L, G9a-methylated (human) (UniProt Q9H9S4)
CAB39L, G9a-methylated (human), sequence (Q9H9S4 whole entry): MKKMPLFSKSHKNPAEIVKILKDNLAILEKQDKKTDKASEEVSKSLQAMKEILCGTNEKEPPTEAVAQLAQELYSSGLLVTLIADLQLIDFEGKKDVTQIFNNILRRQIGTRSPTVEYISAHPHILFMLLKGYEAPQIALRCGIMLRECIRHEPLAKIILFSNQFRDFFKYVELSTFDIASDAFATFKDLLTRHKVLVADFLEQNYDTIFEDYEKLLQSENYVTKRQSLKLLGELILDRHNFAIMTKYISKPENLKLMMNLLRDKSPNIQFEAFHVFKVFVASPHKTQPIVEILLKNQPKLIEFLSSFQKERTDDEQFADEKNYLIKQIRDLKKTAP

[21] = target: FTH1 (hit 109), G9a-methylated (human) (UniProt P02794)
[22] = target: DIRAS1, G9a-methylated (human) (UniProt O95057)
[23] = target: SCGB1A1, G9a-methylated (human) (UniProt P11684)
[24] = target: ZBP1, G9a-methylated (human) (UniProt Q9H171)
[25] = target: GFOD1, G9a-methylated (human) (UniProt Q9NXC2)
[26] = target: RHBDD1, G9a-methylated (human) (UniProt Q8TEB9)
[27] = target: WDR45, G9a-methylated (human) (UniProt Q9Y484)
[28] = target: C12orf60, G9a-methylated (human) (UniProt Q5U649)
[29] = target: NME7, G9a-methylated (human) (UniProt Q9Y5B8)
[30] = target: SCGB2A2, G9a-methylated (human) (UniProt Q13296)
SCGB2A2, G9a-methylated (human), sequence (Q13296 19-93 limits assumed): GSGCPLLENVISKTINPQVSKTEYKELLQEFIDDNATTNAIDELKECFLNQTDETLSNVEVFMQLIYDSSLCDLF

[31] = target: UBE2S, G9a-methylated (human) (UniProt Q16763)
[32] = target: SAR1B, G9a-methylated (human) (UniProt Q9Y6B6)
[33] = target: DGKA, G9a-methylated (human) (UniProt P23743)
[34] = target: SMYD5, G9a-methylated (human) (UniProt Q6GMV2)
SMYD5, G9a-methylated (human), sequence (Q6GMV2 whole entry): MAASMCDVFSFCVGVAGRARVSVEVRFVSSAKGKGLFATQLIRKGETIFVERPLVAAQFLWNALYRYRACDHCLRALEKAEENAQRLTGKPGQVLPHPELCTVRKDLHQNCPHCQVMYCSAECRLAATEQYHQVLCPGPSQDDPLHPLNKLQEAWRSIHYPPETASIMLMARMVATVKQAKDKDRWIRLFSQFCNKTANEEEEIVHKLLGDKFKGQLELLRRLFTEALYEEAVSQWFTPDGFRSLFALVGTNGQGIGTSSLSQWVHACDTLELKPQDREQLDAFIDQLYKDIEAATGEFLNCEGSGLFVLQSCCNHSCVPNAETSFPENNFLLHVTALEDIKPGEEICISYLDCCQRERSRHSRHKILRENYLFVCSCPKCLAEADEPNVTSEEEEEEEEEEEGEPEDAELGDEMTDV

[35] = target: SH3YL1 (hit 65), G9a-methylated (human) (UniProt Q96HL8)
SH3YL1 (hit 65), G9a-methylated (human), sequence (Q96HL8 whole entry): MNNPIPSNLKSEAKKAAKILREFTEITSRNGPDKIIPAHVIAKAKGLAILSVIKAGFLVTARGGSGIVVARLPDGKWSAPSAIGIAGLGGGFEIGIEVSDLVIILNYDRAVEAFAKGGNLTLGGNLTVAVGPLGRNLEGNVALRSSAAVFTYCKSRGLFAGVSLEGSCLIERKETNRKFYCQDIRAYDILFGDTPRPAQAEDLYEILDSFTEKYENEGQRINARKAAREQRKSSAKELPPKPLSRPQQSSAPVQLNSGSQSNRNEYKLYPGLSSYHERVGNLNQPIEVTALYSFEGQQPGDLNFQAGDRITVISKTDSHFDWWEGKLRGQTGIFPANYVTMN

[36] = target: TTC27, G9a-methylated (human) (UniProt Q6P3X3)
[37] = target: CNTD1, G9a-methylated (human) (UniProt Q8N815)
[38] = target: CRB3, G9a-methylated (human) (UniProt Q9BUF7)
[39] = target: RDH11, G9a-methylated (human) (UniProt Q8TC12)
RDH11, G9a-methylated (human), sequence (Q8TC12 whole entry): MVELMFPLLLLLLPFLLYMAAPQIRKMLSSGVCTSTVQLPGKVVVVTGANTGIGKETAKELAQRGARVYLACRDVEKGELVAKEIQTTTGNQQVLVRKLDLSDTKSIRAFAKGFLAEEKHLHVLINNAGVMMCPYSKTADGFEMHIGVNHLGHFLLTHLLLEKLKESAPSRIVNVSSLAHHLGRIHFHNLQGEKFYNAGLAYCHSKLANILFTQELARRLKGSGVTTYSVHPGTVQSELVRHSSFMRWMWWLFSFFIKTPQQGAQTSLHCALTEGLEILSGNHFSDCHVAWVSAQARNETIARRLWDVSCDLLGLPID

[40] = target: CTXN1, G9a-methylated (human) (UniProt P60606)
[41] = target: SNFT, G9a-methylated (human) (UniProt Q9NR55)
SNFT, G9a-methylated (human), sequence (Q9NR55 whole entry): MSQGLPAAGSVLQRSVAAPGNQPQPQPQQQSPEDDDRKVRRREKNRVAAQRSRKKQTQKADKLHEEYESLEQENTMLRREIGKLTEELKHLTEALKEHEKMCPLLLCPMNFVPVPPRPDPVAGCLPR

[42] = target: HIC2, G9a-methylated (human) (UniProt Q96JB3)
HIC2, G9a-methylated (human), sequence (Q96JB3 whole entry): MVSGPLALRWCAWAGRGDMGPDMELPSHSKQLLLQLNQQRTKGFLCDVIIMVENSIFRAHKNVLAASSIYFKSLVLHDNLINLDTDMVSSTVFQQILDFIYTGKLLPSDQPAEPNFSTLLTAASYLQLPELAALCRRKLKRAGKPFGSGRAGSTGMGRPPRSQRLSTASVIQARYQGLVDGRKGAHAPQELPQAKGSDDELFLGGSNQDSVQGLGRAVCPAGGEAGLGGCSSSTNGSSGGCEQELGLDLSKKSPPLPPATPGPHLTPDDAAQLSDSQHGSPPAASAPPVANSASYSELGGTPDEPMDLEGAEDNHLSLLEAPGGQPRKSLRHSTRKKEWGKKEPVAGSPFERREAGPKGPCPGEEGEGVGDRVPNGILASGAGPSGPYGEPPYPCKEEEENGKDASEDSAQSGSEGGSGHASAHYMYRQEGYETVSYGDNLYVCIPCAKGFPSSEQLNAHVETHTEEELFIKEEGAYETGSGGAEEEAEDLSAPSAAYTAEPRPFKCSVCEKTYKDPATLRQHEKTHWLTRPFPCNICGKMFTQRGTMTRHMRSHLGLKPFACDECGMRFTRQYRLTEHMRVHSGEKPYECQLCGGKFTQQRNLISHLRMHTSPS

[43] = target: Magmas, G9a-methylated (human) (UniProt Q9Y3D7)
[44] = target: GYPC, G9a-methylated (human) (UniProt P04921)
GYPC, G9a-methylated (human), sequence (P04921 other isoform, or with tags, fused parts or gaps limits assumed): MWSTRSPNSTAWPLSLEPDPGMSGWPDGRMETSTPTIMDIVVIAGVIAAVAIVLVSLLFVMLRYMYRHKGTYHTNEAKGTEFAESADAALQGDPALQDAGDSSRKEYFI

[45] = target: MAGEH1, G9a-methylated (human) (UniProt Q9H213)
MAGEH1, G9a-methylated (human), sequence (Q9H213 whole entry): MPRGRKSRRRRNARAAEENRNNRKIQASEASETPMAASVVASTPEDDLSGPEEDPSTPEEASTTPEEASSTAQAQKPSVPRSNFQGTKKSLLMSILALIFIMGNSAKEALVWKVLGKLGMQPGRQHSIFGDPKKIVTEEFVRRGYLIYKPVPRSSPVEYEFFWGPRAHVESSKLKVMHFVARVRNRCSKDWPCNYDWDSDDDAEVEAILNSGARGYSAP

3× Flag-3×MBT (designed binder), sequence (chain): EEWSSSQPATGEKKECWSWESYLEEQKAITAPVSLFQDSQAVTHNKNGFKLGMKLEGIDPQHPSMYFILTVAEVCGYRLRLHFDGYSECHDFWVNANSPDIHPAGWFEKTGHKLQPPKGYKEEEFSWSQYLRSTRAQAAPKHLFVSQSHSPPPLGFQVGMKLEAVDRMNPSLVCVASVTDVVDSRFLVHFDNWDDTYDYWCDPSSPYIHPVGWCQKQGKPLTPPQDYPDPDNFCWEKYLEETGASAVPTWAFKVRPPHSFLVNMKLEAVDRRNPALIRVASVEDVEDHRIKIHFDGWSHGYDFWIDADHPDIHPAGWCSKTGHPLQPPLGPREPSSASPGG

Substance: 3× Flag-3×MBT (designed binder)
- G9a Average SNR [1]: 13.8
- G9a Average SNR [2]: 14.4
- G9a Average SNR [3]: 11.2
- G9a Average SNR [4]: 14.9
- G9a Average SNR [5]: 34.2
- G9a Average SNR [6]: 13.3
- G9a Average SNR [7]: 11.8
- G9a Average SNR [8]: 13.5
- G9a Average SNR [9]: 21.8
- G9a Average SNR [10]: 16.4
- G9a Average SNR [11]: 13.6
- G9a Average SNR [12]: 20.2
- G9a Average SNR [13]: 12.7
- G9a Average SNR [14]: 26.4
- G9a Average SNR [15]: 13
- G9a Average SNR [16]: 17.2
- G9a Average SNR [17]: 15.2
- G9a Average SNR [18]: 15.1
- G9a Average SNR [19]: 13.2
- G9a Average SNR [20]: 14.6
- G9a Average SNR [21]: 38.7
- G9a Average SNR [22]: 29.2
- G9a Average SNR [23]: 19.6
- G9a Average SNR [24]: 14.7
- G9a Average SNR [25]: 16.4
- G9a Average SNR [26]: 12.3
- G9a Average SNR [27]: 16.6
- G9a Average SNR [28]: 12.4
- G9a Average SNR [29]: 14.1
- G9a Average SNR [30]: 14.8
- G9a Average SNR [31]: 25
- G9a Average SNR [32]: 19.8
- G9a Average SNR [33]: 15.5
- G9a Average SNR [34]: 20.7
- G9a Average SNR [35]: 16.5
- G9a Average SNR [36]: 20.7
- G9a Average SNR [37]: 12.7
- G9a Average SNR [38]: 15.2
- G9a Average SNR [39]: 26.6
- G9a Average SNR [40]: 19.7
- G9a Average SNR [41]: 18.1
- G9a Average SNR [42]: 16.7
- G9a Average SNR [43]: 13.9
- G9a Average SNR [44]: 13.4
- G9a Average SNR [45]: 44
